Experimental findings from PMC5823874 are described below.

In assay [1] the target is FAM-labeled calmodulin T34C (UniProt P0DP23). Kind of assay: fluorescence polarisation; fluorescence anisotropy; 30 nM FAM-CaM with Ca2+, titrated with a twofold dilution series of iPLA2β; 25 mM HEPES 7.5, 150 mM NaCl, 10% glycerol; 15 min at 25 °C.
For assay [2], the target named is Calcium-independent phospholipase A2β, short variant (SH-iPLA2β, 752 amino acids), wild type (Chinese hamster (gene cloned from CHO cells)). Kind of assay: AUC; sedimentation velocity, 20 °C, 35,000 rpm, absorbance at 280 nm; 25 mM HEPES 7.5, 500 mM NaCl, 10% glycerol; c(s) model in SEDFIT.
The target is the same in assay [3].

In the case of “Calcium-independent phospholipase A2β, short variant (SH-iPLA2β, 752 amino acids), wild type (enzyme)”, the Kd (as a rule, a measure of binding affinity in units of concentration) in assay [1] came to 0.112 µM. Also, the stoichiometry N (commonly the number of molecules, sites or subunits per partner or assembly) in assay [2] is 2.

As for “Calmodulin (CaM), unmodified (from UniProt P0DP23 1-149) (natural protein)”, the Ki of inhibition of iPLA2β enzymatic activity by CaM in the presence of Ca2+ (fluorogenic assay with Pyrene-PC liposomes) in assay [3] came out at 0.023 µM.

For the substance iPLA2β W695E mutant (enzyme), the Kd in assay [1] was more than 1.4 µM.
